# Results: patent US20100174053A1 (published 2010)
# T1: soluble CD32B (sCD32B) (human, UniProt P31994 43-217, biotin where used as the ELISA probe)
# T1 construct: extracellular domain; also called soluble CD32B ectodomain; sCD32B-biotin
# T1 sequence (looked up): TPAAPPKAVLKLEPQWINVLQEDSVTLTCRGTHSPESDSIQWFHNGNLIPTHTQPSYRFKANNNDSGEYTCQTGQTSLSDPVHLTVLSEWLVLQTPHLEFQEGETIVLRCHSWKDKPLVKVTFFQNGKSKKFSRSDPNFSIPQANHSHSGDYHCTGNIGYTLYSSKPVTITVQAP
# T2: sCD32A (UniProt P12318 34-217, limits assumed)
# T2 construct: extracellular domain; Negative control surface in SPR; also called control receptor
# T2 sequence (looked up): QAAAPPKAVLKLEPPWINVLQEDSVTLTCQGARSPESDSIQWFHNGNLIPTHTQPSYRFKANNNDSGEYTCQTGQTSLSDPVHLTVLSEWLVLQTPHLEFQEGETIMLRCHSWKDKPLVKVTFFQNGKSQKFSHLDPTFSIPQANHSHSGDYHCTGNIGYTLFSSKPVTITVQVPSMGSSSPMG
# T3: sCD32B-Ig (UniProt P31994 43-217)
# T3 construct: extracellular domain; not shown: Ig part of sCD32B-Ig; not described
# T3 sequence (looked up): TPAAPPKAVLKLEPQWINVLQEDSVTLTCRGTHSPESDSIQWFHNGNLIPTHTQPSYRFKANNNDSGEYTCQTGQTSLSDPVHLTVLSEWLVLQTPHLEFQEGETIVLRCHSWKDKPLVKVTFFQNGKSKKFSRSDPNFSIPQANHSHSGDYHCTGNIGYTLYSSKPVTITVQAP
# Tests used:
# soluble CD32B (sCD32B) = target: T1, soluble CD32B (sCD32B); experiment: SPR (BIAcore), receptor immobilised
# Protocol: (§1) (A) Binding to sCD16; (B) Binding to sCD32B and (C) Binding to sCD32A. Diabodies were injected at a concentration of 100 NM, and scFv at a concentration of 200 nM, over receptor surfaces at a flow rate of […] for 60 sec.
# (§2) sCD16A, sCD32B or sCD32A (negative control) were immobilized on one of the four flow cells (flow cell 2) of a sensor chip surface through amine coupling chemistry (by modification of carboxymethyl groups with mixture of NHS/EDC) such that about 1000 response units (RU) of either receptor was immobilized on the surface. Following this, the unreacted active esters were “capped off” with an injection of 1M Et-NH2.
# sCD32A = target: T2, sCD32A; experiment: SPR (BIAcore), receptor immobilised
# Protocol: as §1, §2
# sCD32B-Ig = target: T3, sCD32B-Ig; experiment: sandwich ELISA: sCD32B-Ig coated, diabody, sCD16A-Biotin probe, streptavidin-HRP
# Protocol: The plate was then incubated at room temperature for 1 hour.
# soluble CD16A (sCD16A) = target: T4, soluble CD16A (sCD16A) (human, UniProt P08637 17-208, biotin or HRP conjugate where used as the ELISA probe); experiment: SPR (BIAcore), receptor immobilised, diabody 6.25-200 nM as analyte, bivalent analyte fit
# T4 construct: extracellular domain; Printed only as soluble CD16A; also called hCD16A; hCD16
# Protocol: Diabodies were injected at concentrations of 6.25-200 nM over receptor surfaces at a flow rate of […] for 180 sec.
# as §2
# T4 sequence (P08637 17-208): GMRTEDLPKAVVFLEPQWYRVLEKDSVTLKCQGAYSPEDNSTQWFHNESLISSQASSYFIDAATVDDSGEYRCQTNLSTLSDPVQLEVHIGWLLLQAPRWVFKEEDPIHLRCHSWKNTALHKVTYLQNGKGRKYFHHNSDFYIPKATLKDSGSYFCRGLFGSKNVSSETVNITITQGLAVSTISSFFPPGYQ
binder,measurement,setting,value
"h3G8 covalent monospecific diabody (CMD) (other, Covalent homodimer of construct 3; also called h3G8 CMD; h3G8 diabody) DIVMTQSPDSLAVSLGERATINCKASQSVDFDGDSFMNWYQQKPGQPPKLLIYTTSNLESGVPDRFSGSGSGTDFTLTISSLQAEDVAVYYCQQSNEDPYTFGQGTKLEIKGGGSGGGGQVTLRESGPALVKPTQTLTLTCTFSGFSLSTSGMGVGWIRQPPGKALEWLAHIWWDDDKRYNPALKSRLTISKDTSKNQVVLTMTNMDPVDTATYYCAQINPAWFAYWGQGTLVTVSSLGGC",binding result,soluble CD32B (sCD32B),no binding (tested: 100 nM)
same,binding result,sCD32A,no binding (tested: 100 nM)
same,binding result,sCD32B-Ig,no binding (tested: 0.5 µg/ml to 0.001 µg/ml)
same,Kd,soluble CD16A (sCD16A),18 nM
